Experimental findings from the DeepSol protein solubility set are described below.

This series can be described thus: soluble on expression in E. coli; label from the status in PepcDB or PDB records.
With “MGSDKIHHHHHHMSLAIVYSRASMGVQAPLVTIEVHLSNGKPGFTLVGLPEKTVKEAQDRVRSALMNAQFKYPAKRITVNLAPADLPKEGGRFDLPIAIGILAASDQLDASHLKQFEFVAELALTGQLRGVHGVIPAILAAQKSKRELIIAKQNANEASLVSDQNTYFAQTLLDVVQFLNGQEKLPLATEIVKESAVNFSGKNTLDLTDIIGQQHAKRALTIAAAGQHNLLFLGPPGTGKTMLASRLTGLLPEMTDLEAIETASVTSLVQNELNFHNWKQRPFRAPHHSASMPALVGGGTIPKPGEISLATNGVLFLDELPEFERKVLDALRQPLESGEIIISRANAKIQFPARFQLVAAMNPSPTGHYTGTHNRTSPQQIMRYLNRLSGPFLDRFDLSIEVPLLPQGSLQNTGDRGETSAQVREKVLKVREIQMERAGKINAYLNSKEIERDCKLNDKDAFFLEKALNKLGLSVRAYHRILKVSRTIADLQGEQQIFQPHLAEALGYRAMVRLLQKLSNM”, the “soluble on expression in E. coli” value is reported as “not soluble”.

As for “MRLNFAYPATGLQKSFEVDEEKKLRLFFEKRMSQEVAIDALGDEWKGYVVRIGGGNDKQGFPMKQGILTNGRVRLLLKKGQSCYRERKNGERKRKSVRGCIVDANMSALSLVIVKKGDGEIEGLTDSVLPRKLGPKRASKIRKLFNLTKHDDVTKYVITHDKTFPDGVTKTIAPKIQRLITPARIARKKYLLRQKRNQKIKMRDDAAAYHKLLAKYSKEEHDAKIARRRSSASHHSESEVKKTSKK”, the “soluble on expression in E. coli” value is “not soluble”.

Turning to “MMTQVTESAVRSALSRVEDPEIGKPITELGMVKSVSIDGSDVQVEVYLTIAACPMKTTIVTNTEAALKDIDGVGQVHVTTDVMSDEQRRALRVSLRGETSEPVIPFAQPGSTTRVYAVASGKGGVGKSSMTVNLAAALAKRGLSVGILDADIYGHSVPGMLGSDQRPHQVDDMIMPPQAHGVKMISIAHFTEGNAPVVWRGPMLHRAIQQFLTDVFWGDLDILLLDLPPGTGDIAITVAQLIPNAELLIVTTPQAAAAEVAERAGTISVQTNQKVAGVIENMSAMVLPDGTTMDVFGTGGGQKIADRLTAVTGEEVKVIGSVPLDPNLRIGGDVGNPIAISEPHSPTAAAINEIAEHLAHRKVSLVGKTLGLGVKLEHHHHHH”, the “soluble on expression in E. coli” value is given as “soluble”.

Turning to “MFADLDYDIEEDKLGIPTVPGKVTLQKDAQNLIGISIGGGAQYCPCLYIVQVFDNTPAALDGTVAAGDEITGVNGRSIKGKTKVEVAKMIQEVKGEVTIHYNKLQADPKQGMSLDIVLKKVKHRLVENMSSGTADALGLSRAILCNDGLVKRLEELERTAELYKGMTEHTKNLLRAFYELSQTHRAFGDVFSVIGVREPQPAASEAFVKFADAHRSIEKFGIRLLKTIKPMLTDLNTYLNKAIPDTRLTIKKYLDVKFEYLSYCLKVKEMDDEEYSCIALGEPLYRVSTGNYEYRLILRCRQEARARFSQMRKDVLEKMELLDQKHVQDIVFQLQRLVSTMSKYYNDCYAVLRDADVFPIEVDLAHTTLAYGLNQEEFTDGEEEEEEEDTAAGEPSRDTRGAAGPLDKGGSWCDS”, the “soluble on expression in E. coli” value was “soluble”.

As for “GFVGRFGASSATTDRSKIFTADFRDFETSFSFQPGVFWGYDDFLSSALLLDIGYNKDKYELKYTVNGGRLLENYDFNSISFGLFPRLNISFVSIGVGGGIKIPLSLKYSKEGDAYSYNKYSLDFGDIKDSFETFYIPYVKVSLDFLIKTKGKFMMSLGVYANYDFPININRNGLLKDISIDKESIAAFDIGFQIGAYLVNR”, the “soluble on expression in E. coli” value is listed as “not soluble”.

On to “MSDKHINLVIVTGMSGAGKTVAIQSFEDLGYFTIDNMPPALVPKFLELIEQTNENRRVALVVDMRSRLFFKEINSTLDSIESNPSIDFRILFLDATDGELVSRYKETRRSHPLAADGRVLDGIRLERELLSPLKSMSQHVVDTTKLTPRQLRKTISDQFSEGSNQASFRIEVMSFGFKYGLPLDADLVFDVRFLPNPYYQVELREKTGLDEDVFNYVMSHPESEVFYKHLLNLIVPILPAYQKEGKSVLTVAIGCTGGQHRSVAFAHCLAESLATDWSVNESHRDQNRRKETVNRS”, for which the “soluble on expression in E. coli” value is reported as “not soluble”.

As to “MGHHHHHHSHQHLEVRDEVAEKCQKLFLDFLEEFQSSDGEIKYLQLAEELIRPERNTLVVSFVDLEQFNQQLSTTIQEEFYRVYPYLCRALKTFVKDRKEIPLAKDFYVAFQDLPTRHKIRELTSSRIGLLTRISGQVVRTHPVHPELVSGTFLCLDCQTVIRDVEQQFKYTQPNICRNPVCANRRRFLLDTNKSRFVDFQKVRIQETQAELPRGSIPRSLEVILRAEAVESAQAGDKCDFTGTLIVVPDVSKLSTPGARAETNSRVSGVDGYETEGIRGL”, the “soluble on expression in E. coli” value was “not soluble”.

In the case of “RLKALRKEQGKALKKDKKLAEPKARVYVLDFDGDIKASATESMRHEITALLTLATDKDEVVLRLESGGGMVHSYGLASSQLARIRQAGIPLTVCIDKVAASGGYMMACIGNKIISAPFAILGSIGVVAQLPNVNRLLKKHDIDFEVLTAGEYKRTLTVFGENTEKGREKFQQDLDITHDLFKNFVASYRPQLSIDEVATGEVWLGMAAVDKLLVDELKTSDE”, the “soluble on expression in E. coli” value is listed as “not soluble”.

“MSLKALIIMDMTNDFVFEKYEHEGKEYEGRLVAPLGKTIVEPIEALVKKVVNSGTVSLFRISKDHYDAFTNPELELKVAELGIDEVFMTGLVDEVCIYHNTLGFLERGFRTNVVRGCTAPFDPEKGRESLGELDACGTKMVDDIPSDIGVILLLEDEHDENSEEIKSGSWPPHSMKGTPGALTIKPIREALESREGHHHHHH”: the “soluble on expression in E. coli” value is reported as “soluble”.

On to “MQIDNISDEQVVIVRMSCYLKKDEIFKNIERYGYQSSDIKKISPPFPLNILPVPKPYYFYLYDTHLNQIYDLAWSCNDFLMFEIFILDRESIKYIDKDKLFKSRETLYSNFKSIKNQCKNYFFCGFDFDAPYFKSGVSQVADYNFVPDAFSLFFI”, for which the “soluble on expression in E. coli” value is recorded as “not soluble”.

Regarding “MSHVNQAVSCIFCYFQEMSFVCGISGELTEDPVVSQVSGHIFDRRLIVKFIAENGTDPISHGELSEDQLVSLKSGGTGSAPRNVSGTSIPSLLKMLQDEWDTVMLNSFSLRQQLQIARQELSHSLYQHDAACRVISRLSKELTAAREALSTLKPHTSAKVDDDVSIDESEDQQGLSEAILAKLEEKSKSLTAERKQRGKNLPEGLAKTEELAELKQTASHTGIHSTGTPGITALDIKGNLSLTGGIDKTVVLYDYEKEQVMQTFKGHNKKINAVVLHPDNITAISASADSHIRVWSATDSSSKAIIDVHQAPVTDISLNASGDYILSASDDSYWAFSDIRSGKSLCKVSVEPGSQIAVHSIEFHPDGLIFGTGAADAVVKIWDLKNQTVAAAFPGHTAAVRSIAFSENGYYLATGSEDGEVKLWDLRKLKNLKTFANEEKQPINSLSFDMTGTFLGIGGQKVQVLHVKSWSEVVSLSDHSGPVTGVRFGENARSLVTCSLDKSLRVFSF”, the “soluble on expression in E. coli” value is “not soluble”.

For the sequence “MFLKVRAEKRLGNFRLNVDFEMGRDYCVLLGPTGAGKSVFLELIAGIVKPDRGEVRLNGADITPLPPERRGIGFVPQDYALFPHLSVYRNIAYGLRNVERVERDRRVREMAEKLGIAHLLDRKPARLSGGERQRVALARALVIQPRLLLLDEPLSAVDLKTKGVLMEELRFVQREFDVPILHVTHDLIEAAMLADEVAVMLNGRIVEKGKLKELFSAKNGEVAEFLSARNLLLKVSKILD”, the “soluble on expression in E. coli” value is listed as “soluble”.

Consider “MAHHHHHHMTILHNPGLPRVLNRITPQRLELTLMLIKERKKKLRYLGSYLQHYNDRTFLYNAMGGLNGTKFIIERHHHRAQYCHPTLHNERYSVRTIKMKGAQFDQVGNFTRNTWDCSVATTNLFQDATFRRHLSAIHKDEAIALLEGWGVKYVLLDEVRKPSVQDSIYVRHNLYIHKFPHIPDPVTNVYHGDADWKWKGDEKIDYTSYGASTKDERNTFQSLWSAAVRESKDSGVAKTVQAGKKL”, for which the “soluble on expression in E. coli” value was “not soluble”.

Turning to “MAQTQSPLQWLATTLIRGYQIFISPILGPRCRFNPTCSHYAIEAIKVHGTAKGCWFALKRILKCHPLHPGGSDPVPPKNDRCNKLEHHHHHH”, the “soluble on expression in E. coli” value is reported as “not soluble”.

In the case of “GFQSNAMKQETPITLHVKSVIEDDGNQEVIEFRTTGFYYVKQNKVYLSYYEEHDLGKVKTIVKVSEGEVLVMRSGAVKMNQRFVTGASTIAKYKMSFGELELKTSTKSIQSDLDEEKGRISIAYDMHVGDEQEHLHNMTITYEGGTHA”, the “soluble on expression in E. coli” value is recorded as “soluble”.
